Measured values as given in US10759863B2, “Modulation of γδ T cells” (Sanford Burnham Prebys Medical Discovery Institute, priority 2013, dated 2020).

What was measured:
[1] = tested on: RORγt; experiment: Digoxin treatment of RORγt-expressing Jurkat cells, BTLA expression; type: cell-based; conditions: digoxin vs DMSO, 24-48 hrs, FIG. 11B
Description: (§1) Surface staining was performed on ice for 20-30 min. Intracellular staining was performed using the BD Cytofix/Cytoperm™ Kit according the manufacturer's instructions (BD Biosciences). Stained cells were acquired using a BD LSRFortessa™ equipped with 4 lasers (blue at 488 nm, yellow-green at 561 nm, red at 640 nm, violet at 405 nm). Antibodies in SI.
For qRT-PCR analysis, total RNA was prepared from FACS sorted populations using the Qiagen RNeasy Mini kit according to the manufacturer's instructions (Qiagen, Valencia, Calif.). RNA was reverse transcribed into cDNA using the iScript™ cDNA synthesis kit (Bio-Rad Laboratories, Hercules, Calif.) according to the manufacturer's instructions. Target genes were detected using intron-spanning primers (Invitrogen) and relative expression was measured using Power® SYBR Master mix (Life Technologies, Grand Island, N.Y.). Reactions were carried out in clear 384 plates using an ABI® 7900 Real-Time PCR System (Life Technologies). We calculated relative expression as follows: 2^−Dct, where Ct=cycle number, DCt=Ct (target gene)−Ct (house-keeping gene). A value of 1 means equal expression of target and house-keeping gene (L32). Oligo sequences (5′-3′):
Jurkat cells were cultured at 10^5/100 μl in U-bottom wells for 24-48 hrs with either DMSO or the indicated concentrations of digoxin (Sigma-Aldrich). […]

[2] = tested on: BTLA expression in γδT cells and ILCs; experiment: Cytokine-induced BTLA expression in cultured iLN γδT cells and PP ILCs; type: cell-based, mice; conditions: for BTLA induction in RORγt+ γδT cells after culture with activating cytokines: iLN lymphocytes of Rorc(t)gfp/+ mice enriched for CD27− γδT cells, FIG. 17A
Description: as §1
(§2) For IL-7 induced expansion iLN lymphocytes were cultured in RF10 media (RPMI+10% FBS, p/s, L-Glutamine) at 10^7/ml in 12-well plates for four days. For IL-7 induced BTLA expression iLN or PP lymphocytes were enriched for ILCs and CD27^− γδT cells and cultured in RF10 media in 24-well plates containing feeder adherent cells for two days. Following enrichment, cells from 3 animals were cultured in 1 ml in a single well. IL-7 (R&D Systems, Minneapolis, Minn.) was added at 10 ng/ml. For IL-17 and TNF production whole lymph node cells were cultured with or without 10 ng/ml IL-7 for 18 hours and then re-stimulated with PMA (50 ng/ml), ionomycin (750 ng/ml) and Golgi Stop™ (BD Biosciences) for 3.5 hours. TH17 differentiation was performed by isolating CD4^+ T cells from spleens and culturing in anti-CD3 (5 μg/ml) coated 24-well plates at 1.35×10^6/ml with anti-CD28 (2 μg/ml), IL-6 (20 ng/ml) and TGFβ1 (2 ng/ml). At day 5, cells were washed and re-stimulated with PMA+ionomycin and Golgi Stop™ (BD Biosciences) for 3.5 hours. For induction of human IL-22, tonsil lymphocytes were cultured in RF10 media at 1.5×10^6/ml in 24-well plates for 6 hours in the presence of 40 ng/ml IL-23 (eBiosciences) and 10 ng/ml IL-1β (R&D Systems). Golgi Stop™ (BD Biosciences) was added during the final 3 hours.
Jurkat cells were cultured at 10^5/100 μl in U-bottom wells for 24-48 hrs with either DMSO or the indicated concentrations of digoxin (Sigma-Aldrich). To test the effect of STAT5 in IL-7-induced BTLA expression, CD27^− gd T cells were enriched from lymph nodes of Rorc(t)^gfp/+ mice and cultured for two days in 24-well plates containing feeder adherent cells with no stimulus, or with IL-7 in the presence or absence of STAT inhibitor (EMD Millipore, Billerica, Mass.) at the indicated concentrations.

[3] = tested on: γδT cells; experiment: IL-17 and TNF production by lymph node γδT cells with or without IL-7; type: cell-based, mice; conditions: all γδT subsets, IL-7 10 ng/ml 18 hours then PMA/ionomycin; FIG. 5
Description: as §1
as §2, with “For induction of human IL-22, tonsil lymphocytes were cultured in RF10 media at 1.5×10^6/ml in 24-well plates for 6 hours in the presence of 40 ng/ml IL-23 (eBiosciences) and 10 ng/ml IL-1β (R&D Systems). Golgi Stop™ (BD Biosciences) was added during the final 3 hours.” left out

[4] = tested on: γδT cells; experiment: IL-7 induced expansion of iLN lymphocytes cultured ex vivo; type: cell-based, mice; conditions: IL-7 10 ng/ml, four days, vs untreated cultures; FIG. 4A
Description: as §2

[5] = iLN γδT cells and PP ILCs from Rorc(t)gfp/+ mice, IL-7 10 ng/ml, two days, vs untreated, FIG. 4G-K

C[C@H]1O[C@@H](O[C@H]2[C@@H](O)C[C@H](O[C@H]3[C@@H](O)C[C@H](O[C@H]4CC[C@@]5(C)[C@H](CC[C@@H]6[C@@H]5C[C@@H](O)[C@]5(C)[C@@H](C7=CC(=O)OC7)CC[C@]65O)C4)O[C@@H]3C)O[C@@H]2C)C[C@H](O)[C@@H]1O [digoxin]
BTLA expression at the mRNA level [1]: induced expression of BTLA
BTLA expression at the protein level (surface expression) [1]: induced expression of BTLA

IL-1β: cytokine, potent γδT cell activator
BTLA induction in RORγt+ γδT cells after culture with activating cytokines [2]: either no or only a minimal effect

B1: IL-23: cytokine, potent γδT cell activator (protein, UniProt Q9NPF7 20-189; P29460 23-328, looked up)
Interleukin-23 subunit alpha: RAVPGGSSPAWTQCQQLSQKLCTLAWSAHPLVGHMDLREEGDEETTNDVPHIQCGDGCDPQGLRDNSQFCLQRIHQGLIFYEKLLGSDIFTGEPSLLPDSPVGQLHASLLGLSQLLQPEGHHWETQQIPSLSPSQPWQRLLLRFKILRSLQAFVAVAARVFAHGAATLSP
Interleukin-12 subunit beta: IWELKKDVYVVELDWYPDAPGEMVVLTCDTPEEDGITWTLDQSSEVLGSGKTLTIQVKEFGDAGQYTCHKGGEVLSHSLLLLHKKEDGIWSTDILKDQKEPKNKTFLRCEAKNYSGRFTCWWLTTISTDLTFSVKSSRGSSDPQGVTCGAATLSAERVRGDNKEYEYSVECQEDSACPAAEESLPIEVMVDAVHKLKYENYTSSFFIRDIIKPDPPKNLQLKPLKNSRQVEVSWEYPDTWSTPHSYFSLTFCVQVQGKSKREKKDRVFTDKTSATVICRKNASISVRAQDRYYSSSWSEWASVPCS
BTLA induction in RORγt+ γδT cells after culture with activating cytokines [2]: either no or only a minimal effect

B2: IL-7: cytokine IL-7 (R&D Systems), added at 10 ng/ml (protein, UniProt P13232 26-177, looked up)
Interleukin-7: DCDIEGKDGKQYESVLMVSIDQLLDSMKEIGSNCLNNEFNFFKRHICDANKEGMFLFRAARKLRQFLKMNSTGDFDLHLLKVSEGTTILLNCTGQVKGRKPAALGEAQPTKSLEENKSLKEQKKLNDLCFLKRLLQEIKTCWNKILMGTKEH
frequency of IL-17 expressing γδT cells [3]: enhanced
frequency of TNF expressing γδT cells [3]: enhanced
number of BTLA+ cells [2, 5]: induced a higher number
surface BTLA expression [2, 5]: increased
viability of γδT cells within lymph node lymphocytes cultured ex vivo [4]: sustained viability
